Positions count from the first letter of the chain named.
What was measured:
[1] = biological target: T1, Fzd1 cysteine rich domain (CRD), C-terminally biotinylated (human, UniProt Q9UP38 101-230); assay: BLI; **=Kd 100-2000 nM
Protocol: (§1) Binding kinetics of antibody fragments to a variety of Fzd cysteine rich domain (CRD) protein targets (Fzd1, Fzd2, Fzd3, Fzd4, Fzd5, Fzd6, Fzd7, Fzd8, Fzd9 and/or Fzd10 CRDs) was determined by bio-layer interferometry (BLI) using Octet Red 96 (PALL ForteBio, Fremont, CA) instruments at 30° C., 1000 rpm with streptavidin (SA) biosensors. C-terminal biotinylated Fzd CRD recombinant protein was diluted to 20 nM in the running buffer (PBS, 0.05% Tween-20, 0.5% BSA, pH 7.2) and captured to the SA biosensor until coupling length reached 0.2 nm. Following capture of the Fzd CRD, the SA biosensor with captured biotinylated-Fzd CRD was dipped into wells containing the relevant antibody fragment at […] (0, 1.37, 4.12, 12.4, 37, 111.1, 333.3, 1000 nM) in running buffer, plus a well with only running buffer as a reference channel. […] was determined by global fitting, 1:1 binding model according to manufacturer recommended settings.
(§2) Table 1B provides clone IDs, the sequence identifier number of the antibody heavy chain fragment and/or light chain fragment, if present, for illustrative clones. In certain embodiments, the Fzd binding domain is an Fab or was derived from an Fab, so the heavy chain of Table 1B includes VH and CH1 sequence, but not CH2 or CH3 sequences. In certain embodiments, the Fzd binding domain is a VHH or sdAb® or was derived from a VHH or sdAb, so Table 1B includes the VHH domain. […] The Kd values were determined by BLI as described above. Blank entries denote that the binding to the specific Fzd receptor has not yet been determined. The entry of "n.b." indicates no binding.

[2] = biological target: T1, Fzd1 cysteine rich domain (CRD), …; assay: BLI
Protocol: as §1, §2

[3] = biological target: T2, Fzd2 cysteine rich domain (CRD), C-terminally biotinylated (human, UniProt Q14332 24-155); assay: BLI
Protocol: as §1, §2

[4] = biological target: T2, Fzd2 cysteine rich domain (CRD), …; assay: BLI; **=Kd 100-2000 nM
Protocol: as §1, §2

[5] = biological target: T1, Fzd1 cysteine rich domain (CRD), …; assay: BLI; *=Kd <=100 nM
Protocol: as §1
One antibody fragment, clone 001S-A04, was selected for alanine-scanning mutagenesis of CDRs, and the respective Fzd1 binding affinities of the various mutants were determined by Octet BLI as described in Example 1.

[6] = biological target: T1, Fzd1 cysteine rich domain (CRD), …; assay: BLI; *=Kd <100 nM
Protocol: as §1, §2

B1: 002S-E02 (VHH)
VHH: QVQLVESGGGLVQPGGSLRLSCAASGFTFREYAMTWVRQSPGKRLEWVSGISRDGGRTSYSDSLKGRFTISRDNAKNTLYLQMNNLTPEDTAVYYCAPRVLVTAPSGGMDYWGKGTQVTVSS
- Kd [1]: 100 to 2000 nM

B2: 004S-B08 (Fab, V domains shown)
VH: QVQLVQSGAEVKKPGASVKVSCKASGYTFTNNFMHWVRQAPGQGLEWMGRINPNSGGTNYAQKFQGRVTMTRDTSTSTVYMELSSLRSEDTAVYYCASQNYYGSGSYPGFDYWGQGTLVNVSS
VL: not shown
- binding result [2]: no binding (tested: 1000 nM)
- binding result [3]: no binding (tested: 1000 nM)

B3: 005S-E12 (Fab, V domains shown)
VH: QVQLVQSGAEVKKPGASVKVSCKASGYIFTDYYMHWVRQAPGQGLEWMGVIFPVYPTPDYAQKFQGRVTMTRDTSTSTVYMELSSLRSEDTAVYYCARGGSTGYYGMDVWGQGTTVTVSS
VL: DIQMTQSPSSLSASVGDRVTITCRASQSVGRWMAWYQQKPGKAPKLLIYAASSLQSGVPSRFSGSGSGTDFTLTISSLQPEDFATYYCQQANTFPFTFGPGTKVDIKR
- binding result [2]: no binding (tested: 1000 nM)
- binding result [3]: no binding (tested: 1000 nM)

B4: 005S-H05 (Fab, V domains shown)
VH: QVQLVQSGAEVKKPGASVKVSCKASGYTFTSYYMHWVRQAPGQGLEWMGRINPNSGGTNYAQKFQGRVTMTRDTSTSTVYMELSSLRSEDTAVYYCARVPDFWSGYLDYWGQGTLVTVSS
VL: DIQMTQSPSSLSASVGDRVTITCRASQGISSALAWYQQKPGKAPKLLIYAASSLQSGVPSRFSGSGSGTDFTLTISSLQPEDFATYYCQQTYSMPITFGQGTRLEIKR
- Kd [4]: 100 to 2000 nM

B5: 003S-D10 (Fab, V domains shown)
VH: EVQLVESGGGLVKPGGSLRLSCAASGFNFGIYSMTWVRQAPGKGLEWISYISGDSGYTNYADSVKGRFTISRDDSKNTLYLQMNSLKTEDTAVYYCARVGPGGWFDPWGQGTLVTVSS
VL: B4 VL with A32Y, S53N, Q55L, S56G, M94T, I96W, R103K, L104V
- binding result [2]: no binding (tested: 1000 nM)
- binding result [3]: no binding (tested: 1000 nM)

B6: 002S-G02 (VHH)
VHH: AVQLVDSGGGLMQAGGSLRLSCAASGRTFGTWAMGWFRQAPGKEREFVAAISYNGFSTYYSDAVKGRFTISRDNAKNTMYLQMDSLIPEDTAVYYCAAGPIARWYRGDMDYWGKGTQVTVSS
- Kd [1]: 100 to 2000 nM

B7: 002S-F03 (VHH)
VHH: AVQLVESGGGLVQAGGPLRLSCAASGRTSSSYAMGWFRQAPGKEREFVAAISWSGGSTYYADSVKGRFTISRDNAKNTVYLQMDSPIPEDTAVYYCAAGPIARWYRGDMDYWGKGTLVTVSS
- Kd [1]: 100 to 2000 nM

B8: 001S-A04 mutant VHG10A (Fab, V domains shown)
VH: EVQLVQSGAEVKKPGASVKVSCKASGYTFTSYGISWVRQAPGQGLEWMGWISAYNGNTNYAQKLQGRVTMTTDTSTSTAYMELRSLRSDDTAVYYCASSKEKATYYYAMDVWGQGTTVTVSS
VL: QAVVLQEPSLSVSPGGTVTLTCGLSSGSVSTNYYPSWYQQTPGQAPRTLIYYTNTRSSDVPERFSGSIVGNKAALTITGAQPDDESVYFCLLYLGRGIWVFGGGTKLTVLG
- KD [5]: ≤ 100 nM

B9: 001S-A04 mutant VLR6A (Fab, V domains shown)
VH: B8 VH with A108G
VL: B8 VL with R96A
- KD [5]: ≤ 100 nM

B10: 001S-A04 mutant VLL1A (Fab, V domains shown)
VH: B8 VH with A108G
VL: B8 VL with L91A
- KD [5]: ≤ 100 nM

B11: 001S-A04 mutant VLV10A (Fab, V domains shown)
VH: B8 VH with A108G
VL: B8 VL with V100A
- KD [5]: ≤ 100 nM

B12: 001S-A04 mutant VLI8A (Fab, V domains shown)
VH: B8 VH with A108G
VL: B8 VL with I98A
- KD [5]: ≤ 100 nM

B13: 001S-A04 mutant VLG5A (Fab, V domains shown)
VH: B8 VH with A108G
VL: B8 VL with G95A
- KD [5]: ≤ 100 nM

B14: 001S-A04 mutant VLL4A (Fab, V domains shown)
VH: B8 VH with A108G
VL: B8 VL with L94A
- KD [5]: ≤ 100 nM

B15: 001S-A04 mutant VLY3A (Fab, V domains shown)
VH: B8 VH with A108G
VL: B8 VL with Y93A
- KD [5]: ≤ 100 nM

B16: 001S-A04 mutant VHK4A (Fab, V domains shown)
VH: B8 VH with K102A, A108G
VL: B8 VL
- KD [5]: ≤ 100 nM

B17: 001S-A04 mutant VLL2A (Fab, V domains shown)
VH: B8 VH with A108G
VL: B8 VL with L92A
- KD [5]: ≤ 100 nM

B18: 001S-A04 mutant VLG7A (Fab, V domains shown)
VH: B8 VH with A108G
VL: B8 VL with G97A
- KD [5]: ≤ 100 nM

B19: 001S-A04 mutant VHV13A (Fab, V domains shown)
VH: B8 VH with A108G, V111A
VL: B8 VL
- KD [5]: ≤ 100 nM

B20: 001S-A04 mutant VHK2A (Fab, V domains shown)
VH: B8 VH with K100A, A108G
VL: B8 VL
- KD [5]: ≤ 100 nM

B21: 001S-B03 (Fab, V domains shown)
VH: QVQLQQWGAGLLKPSETLSLTCAVSGASFSGHYWTWIRQPPGKGLEWIGEIDHTGSTNYEPSLRSRVTISVDTSKNQFSLNLKSVTAADTAVYYCARGGQGGYDWGHYHGLDVWGQGTTVTVSS
VL: SYVLTQPPSVSVSPGQTASITCSGDKVGHKYASWYQQKPGQSPVLVIYEDSQRPSGIPVRFSGSNSGNTATLTISGTQAMDEADYYCQAWDSSTDVVFGGGTKLTVLG
notes: also called 1RC07
- Kd [6]: < 100 nM

B22: 004S-D08 (Fab, V domains shown)
VH: QVQLVQSGAEVKKPGSSVKVSCKASGYTFTYRYLHWVRQAPGQGLEWMGGIIPIFGTANYAQKFQGRVTITADESTSTAYMELSSLRSEDTAVYYCATHDSSGYYSFDYWGQGTLVTVSS
VL: not shown
- binding result [2]: no binding (tested: 1000 nM)
- binding result [3]: no binding (tested: 1000 nM)

B23: 002S-B01 (VHH)
VHH: EVQLVESGGGLVQAGGSLRLSCTASGSTFSNYAMGWFRQAPGKEREFVAAISWGGGSTFYSGSVKGRFTISRDSAKNTVHLQMDSLIPEDTAVYYCAAGPIARWYRGDMDYWGKGTLVTVSS
- Kd [6]: < 100 nM

B24: 004S-C09 (Fab, V domains shown)
VH: QVQLVQSGAEVKKPGASVKVSCKASGYTFTNNFMHWVRQAPGQGLEWMGGFDPEDGETIYAQKFQGRVTMTRDTSTSTVYMELSSLRSEDTAVYYCARVGRGYSFDYWGQGTLVTVSS
VL: not shown
- binding result [2]: no binding (tested: 1000 nM)
- binding result [3]: no binding (tested: 1000 nM)

B25: 002S-D04 (VHH)
VHH: QVKLEESGGGLVQAGGSLRLSCAASGGTSSTYAMGWFRQAPGKEREFVAAINRSGGSTYYADSVKGRFTISRDNAKNTVYLQMNSLNPEDTAVYYCAAVFLSRNYEIQEYYRYQGQGTQVTVSS
- Kd [1]: 100 to 2000 nM

B26: 003S-E07 (Fab, V domains shown)
VH: QVQLVQSGAEVKKPGSSVKVSCKASGYTFTNNFMHWVRQAPGQGLEWMGWINPNSGGTKYAQKFQGRVTITADESTSTAYMELSSLRSEDTAVYYCARSVGEVGATMLGIGVWYWFDPWGQGTLVTVSS
VL: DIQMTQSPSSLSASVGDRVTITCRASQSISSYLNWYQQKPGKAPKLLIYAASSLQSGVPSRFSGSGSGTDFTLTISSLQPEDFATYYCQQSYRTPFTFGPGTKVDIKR
notes: also called R2M9
- Kd [4]: 100 to 2000 nM

B27: 002S-B04 (VHH)
VHH: DVQLVESGGGLVQAGGSLRLSCAASGRTFSSYAMGWFRQAPGKEREFVAAISWSGGSTYYADSVKGRFTISRDNAKNTVYLQMNSLKPEDTAVYYCAAGPNYSWFMPSSSRLIWGQGTLVTVSS
- Kd [1]: 100 to 2000 nM
